These results are taken from patent publication US20220185896A1 (NEW YORK UNIVERSITY, published 2022).

What is called Kd is the free concentration of one partner at which half of the binding sites on the other are occupied at equilibrium, for simple one-to-one binding. A higher Kd goes with a looser complex.

Test [1] has as its target T1, mouse galectin-9 CRD2 domain (mouse, UniProt O08573 225-353, limits assumed).
T1 construct: domain: CRD2; also called mouse CRD2 domain
The experiment in a line: bead based binding.

The target in test [2] is T2, human galectin-9 CRD2 domain (human, UniProt O00182 227-355, limits assumed).
T2 construct: domain: CRD2; also called CRD2 domain of galectin-9
Description: bead based binding.

Test [3] has as its target T3, cynomolgus galectin-9 CRD2 domain (cynomolgus monkey, UniProt A0A7N9IHL9 227-355).
T3 construct: domain: CRD2; also called cynomolgus CRD2 domain; CRD2 domain of cynomolgus monkey galectin-9
The experiment in a line: bead based binding.

The target of test [4] is T4, rat galectin-9 CRD2 domain (rat, UniProt P97840 226-354, limits assumed).
T4 construct: domain: CRD2; also called rat CRD2 domain
Description: bead based binding.

The target of test [5] is T1, mouse galectin-9 CRD2 domain. The experiment in a line: SPR, One Step method on a Pioneer SPR. For orientation: SPR reads the build-up and loss of mass on a sensor chip optically.
Test [6] concerns the target T5, human galectin-9 CRD1 domain (human, UniProt O00182 15-148, limits assumed).
T5 construct: domain: CRD1; also called CRD1 domain of galectin-9 protein
Description: bead based binding to human galectin-9 CRD1 and CRD2 domains.

The target in test [7] is T2, human galectin-9 CRD2 domain. Description: ELISA, antibody titrated over immobilized Galectin-9 CRD2. (In general: An ELISA detects its analyte on a solid surface through an enzyme-linked reagent.)
Test [8] deals with T6, human galectin-9 on the cell surface (CRL-2134 cell line; patient tumor-derived cells) (human, UniProt O00182 1-355).
T6 construct: whole, on cells
The experiment in a line: cell based saturation curve, surface staining of CRL-2134 cells (fraction of positive cells).

T1 sequence (O08573 225-353 limits assumed): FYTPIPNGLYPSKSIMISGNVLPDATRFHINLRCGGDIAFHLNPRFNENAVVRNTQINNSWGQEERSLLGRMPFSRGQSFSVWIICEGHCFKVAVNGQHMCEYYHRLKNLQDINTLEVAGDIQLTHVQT
T2 sequence (O00182 227-355 limits assumed): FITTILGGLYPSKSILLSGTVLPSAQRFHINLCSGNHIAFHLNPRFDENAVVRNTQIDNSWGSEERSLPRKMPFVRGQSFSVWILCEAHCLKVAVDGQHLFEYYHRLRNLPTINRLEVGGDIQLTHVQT
T5 sequence (O00182 15-148 limits assumed): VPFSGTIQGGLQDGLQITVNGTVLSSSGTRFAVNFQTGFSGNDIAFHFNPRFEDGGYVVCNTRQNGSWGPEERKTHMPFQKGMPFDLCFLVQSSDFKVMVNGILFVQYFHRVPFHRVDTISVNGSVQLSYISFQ
T6 sequence (O00182 whole entry): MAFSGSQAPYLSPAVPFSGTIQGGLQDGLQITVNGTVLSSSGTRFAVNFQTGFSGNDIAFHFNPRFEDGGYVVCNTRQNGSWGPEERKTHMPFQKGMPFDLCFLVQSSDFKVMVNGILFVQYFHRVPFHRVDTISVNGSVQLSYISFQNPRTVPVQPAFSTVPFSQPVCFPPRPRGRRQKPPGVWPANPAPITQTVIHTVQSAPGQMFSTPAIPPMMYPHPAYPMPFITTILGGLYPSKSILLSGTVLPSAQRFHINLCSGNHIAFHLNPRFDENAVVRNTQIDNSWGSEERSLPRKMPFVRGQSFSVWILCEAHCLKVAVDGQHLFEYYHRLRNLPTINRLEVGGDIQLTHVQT
T4 sequence (P97840 226-354 limits assumed): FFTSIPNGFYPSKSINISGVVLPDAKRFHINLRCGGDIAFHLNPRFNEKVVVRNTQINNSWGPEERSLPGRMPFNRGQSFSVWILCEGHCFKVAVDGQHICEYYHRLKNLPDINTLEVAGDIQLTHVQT

B1: G9.2-17 mIgG1 (mouse IgG1 version of G9.2-17) (antibody, V domains shown)
VH: EVQLVESGGGLVQPGGSLRLSCAASGFTVSSSSIHWVRQAPGKGLEWVAYISSSSGYTYYADSVKGRFTISADTSKNTAYLQMNSLRAEDTAVYYCARYWSYPSWWPYRGMDYWGQGTLVTVSS
VL: DIQMTQSPSSLSASVGDRVTITCRASQSVSSAVAWYQQKPGKAPKLLIYSASSLYSGVPSRFSGSRSGTDFTLTISSLQPEDFATYYCQQSSTDPITFGQGTKVEIKR
notes: Mouse IgG1 backbone; also called mIgG1 G9.2-17; G9.2-17 IgG1 mouse mAb
Consider B1, for which the dissociation constant (Kd) in test [1] amounted to 0.3 nM; in test [2], 0.18 nM; in test [3] it was 0.3 nM; in test [4], 0.35 nM; in test [5], 3.05 nM; in test [7], 0.45 nM. In addition, the affinity in test [8], expressed as Kd, was 2.9 nM. Also, in test [6], the binding result was “no binding”.

B2: anti-Galectin-9 antibody G9.2-17 (IgG4) (antibody, V domains shown)
VH: EVQLVESGGGLVQPGGSLRLSCAASGFTVSSSSIHWVRQAPGKGLEWVAYISSSSGYTYYADSVKGRFTISADTSKNTAYLQMNSLRAEDTAVYYCARYWSYPSWWPYRGMDYWGQGTLVTVSS
VL: DIQMTQSPSSLSASVGDRVTITCRASQSVSSAVAWYQQKPGKAPKLLIYSASSLYSGVPSRFSGSRSGTDFTLTISSLQPEDFATYYCQQSSTDPITFGQGTKVEIKR
notes: also called G9.2-17 (Ig4); G9.2-17 hIgG4 Fab Arm Exchange mut
For B2, the Kd in test [1] was 0.3 nM; in test [2] it was 0.15 nM; in test [5], 1.8 nM; in test [7], 0.42 nM; in test [8], 0.41 nM. The binding result in test [6] is “no binding”.
